Source: PMC11047093

T1: His-APOBEC2 E100A (Mus musculus, UniProt Q9WV35 1-224, E100A)
T1 sequence: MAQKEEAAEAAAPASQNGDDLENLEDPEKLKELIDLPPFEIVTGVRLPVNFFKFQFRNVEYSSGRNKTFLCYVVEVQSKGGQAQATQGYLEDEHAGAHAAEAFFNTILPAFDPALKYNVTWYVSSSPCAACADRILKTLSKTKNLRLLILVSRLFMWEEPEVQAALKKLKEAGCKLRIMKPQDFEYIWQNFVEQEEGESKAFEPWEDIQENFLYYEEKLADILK

T2: His-APOBEC2 (Mus musculus, UniProt Q9WV35 1-224)
T2 sequence: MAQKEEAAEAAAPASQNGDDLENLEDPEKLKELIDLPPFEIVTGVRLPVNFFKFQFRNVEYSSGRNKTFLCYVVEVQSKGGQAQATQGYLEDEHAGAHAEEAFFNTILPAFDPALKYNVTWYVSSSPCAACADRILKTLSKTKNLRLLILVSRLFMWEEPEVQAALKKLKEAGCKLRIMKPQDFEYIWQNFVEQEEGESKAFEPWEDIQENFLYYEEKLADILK


Key:
[1] = target: T1, His-APOBEC2 E100A; test: MST
[2] = target: T2, His-APOBEC2; test: MST

Binder	binding result [1]	Kd [2] [nM]
TCTCAAGAAAAAAAAAAAAAGAC (ssDNA) [A-tract (poly-A) motif]	no binding	–
GGCGGCGCGGCCCCGCCCCCTCCTCCGGC (ssDNA) [SP/KLF motif]	no binding	926 ± 243
